Results published in paper PMC6879718, “Mycobacterial OtsA Structures Unveil Substrate Preference Mechanism and Allosteric Regulation by 2-Oxoglutarate and 2-Phosphoglycerate” (mBio, 2019).
Entries after “also recorded” stand apart in the source; their conditions may differ. Where two headings read alike, the source gives them in different places.

Columns and labels:
Assay type in all cases: biochemical, Mycobacterium thermoresistibile
[1] = molecular target: M. thermoresistibile OtsA wild type (Mycolicibacterium thermoresistibile, UniProt G7CGT2); assay: Effect of feedback inhibitors and allosteric regulators on OtsA activity (wild type)
[2] = tested on: Nc1nc2c(ncn2[C@@H]2O[C@H](COP(=O)(O)OP(=O)(O)O[C@H]3O[C@H](CO)[C@@H](O)[C@H](O)[C@H]3O)[C@@H](O)[C@H]2O)c(=O)[nH]1; assay: OtsA kinetic parameters, continuous colorimetric coupled assay (L319I, V363F, E367L); settings: other: L319I, G6P fixed at 10 mM for NDP-glucose, ADP-glucose […] for G6P, pH 7.5, 37.0 °C
[3] = tested on: Nc1ncnc2c1ncn2[C@@H]1O[C@H](COP(=O)(O)OP(=O)(O)O[C@H]2O[C@H](CO)[C@@H](O)[C@H](O)[C@H]2O)[C@@H](O)[C@H]1O; assay: as above; settings: other: L319I, G6P fixed at 10 mM for NDP-glucose, ADP-glucose […] for G6P, pH 7.5, 37.0 °C
[4] = tested on: O=C[C@H](O)[C@@H](O)[C@H](O)[C@H](O)COP(=O)(O)O; assay: as above; settings: other: L319I, G6P fixed at 10 mM for NDP-glucose, ADP-glucose […] for G6P, pH 7.5, 37.0 °C
[5] = tested on: Nc1ncnc2c1ncn2[C@@H]1O[C@H](COP(=O)(O)OP(=O)(O)O[C@H]2O[C@H](CO)[C@@H](O)[C@H](O)[C@H]2O)[C@@H](O)[C@H]1O; assay: OtsA kinetic parameters, continuous colorimetric coupled assay (R384E); settings: other: R384E; G6P fixed at 10 mM for NDP-glucose, ADP-glucose […] for G6P; pH 7.5; 37.0 °C
Protocol: (§1) Formation of T6P was assessed by a continuous colorimetric assay that followed the release of NDP by measuring the oxidation of NADH at 340 nm, in the presence of pyruvate kinase and lactate dehydrogenase. All reagents used were obtained from Sigma-Aldrich. The enzymatic reactions (200-μl reaction mixture) were performed at 37°C, and the reaction mixtures contained 50 mM Tris (pH 7.5), 200 mM NaCl, 10 mM MgCl2, 50 mM KCl, 0.3 mM NADH, 2.5 mM phosphoenolpyruvate (PEP), 10 units of pyruvate kinase-lactate dehydrogenase, 0.1 μM enzyme, and various concentrations of G6P and NDP-glucose to determine kinetic parameters.

[6] = tested on: O=C[C@H](O)[C@@H](O)[C@H](O)[C@H](O)COP(=O)(O)O; assay: as above; settings: other: R384E; G6P fixed at 10 mM for NDP-glucose, ADP-glucose […] for G6P; pH 7.5; 37.0 °C
Protocol: as §1

[7] = tested on: Nc1nc2c(ncn2[C@@H]2O[C@H](COP(=O)(O)OP(=O)(O)O[C@H]3O[C@H](CO)[C@@H](O)[C@H](O)[C@H]3O)[C@@H](O)[C@H]2O)c(=O)[nH]1; assay: OtsA kinetic parameters, continuous colorimetric coupled assay (V363F); settings: other: V363F; G6P fixed at 10 mM for NDP-glucose, ADP-glucose […] for G6P; pH 7.5; 37.0 °C
[8] = tested on: Nc1ncnc2c1ncn2[C@@H]1O[C@H](COP(=O)(O)OP(=O)(O)O[C@H]2O[C@H](CO)[C@@H](O)[C@H](O)[C@H]2O)[C@@H](O)[C@H]1O; assay: as above; settings: other: V363F; G6P fixed at 10 mM for NDP-glucose, ADP-glucose […] for G6P; pH 7.5; 37.0 °C
[9] = tested on: O=C[C@H](O)[C@@H](O)[C@H](O)[C@H](O)COP(=O)(O)O; assay: as above; settings: other: V363F; G6P fixed at 10 mM for NDP-glucose, ADP-glucose […] for G6P; pH 7.5; 37.0 °C
[10] = molecular target: T1, M. thermoresistibile OtsA R213E (Mycolicibacterium thermoresistibile, UniProt G7CGT2, R213E); assay: Effect of allosteric regulators on OtsA activity (R213E); settings: R213E, G6P and ADP-glucose both 0.3 mM
T1 sequence (G7CGT2 1-486 R213E): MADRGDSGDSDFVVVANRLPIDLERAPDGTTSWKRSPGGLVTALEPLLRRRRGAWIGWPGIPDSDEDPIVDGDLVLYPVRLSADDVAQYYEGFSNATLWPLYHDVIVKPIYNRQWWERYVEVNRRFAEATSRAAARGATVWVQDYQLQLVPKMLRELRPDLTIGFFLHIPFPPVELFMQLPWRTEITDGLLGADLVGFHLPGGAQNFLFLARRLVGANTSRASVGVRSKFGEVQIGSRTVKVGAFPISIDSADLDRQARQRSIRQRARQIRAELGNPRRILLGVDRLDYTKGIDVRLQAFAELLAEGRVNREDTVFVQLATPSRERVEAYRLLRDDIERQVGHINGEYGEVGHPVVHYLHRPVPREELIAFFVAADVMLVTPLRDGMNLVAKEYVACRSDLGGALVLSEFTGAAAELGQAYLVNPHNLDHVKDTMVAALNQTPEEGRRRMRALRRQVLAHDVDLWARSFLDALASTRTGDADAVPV
Protocol: (§2) . All reagents used were obtained from Sigma-Aldrich. The enzymatic reactions (200-μl reaction mixture) were performed at 37°C, and the reaction mixtures contained 50 mM Tris (pH 7.5), 200 mM NaCl, 10 mM MgCl2, 50 mM KCl, 0.3 mM NADH, 2.5 mM phosphoenolpyruvate (PEP), 10 units of pyruvate kinase-lactate dehydrogenase, 0.1 μM enzyme, and various concentrations of G6P and NDP-glucose to determine kinetic parameters.
(§3) […]. All experiments were performed in triplicate in a PHERAstar plate reader (BMG Labtech), and data were analyzed with Prism 5 (GraphPad Software).

[11] = molecular target: T2, M. thermoresistibile OtsA R384E (Mycolicibacterium thermoresistibile, UniProt G7CGT2, R384E); assay: Effect of allosteric regulators on OtsA activity (R384E); settings: R384E, G6P and ADP-glucose both 0.3 mM
T2 sequence (G7CGT2 1-486 R384E): T1 sequence (G7CGT2 1-486 R213E)
Protocol: as §2, §3

[12] = tested on: Nc1nc2c(ncn2[C@@H]2O[C@H](COP(=O)(O)OP(=O)(O)O[C@H]3O[C@H](CO)[C@@H](O)[C@H](O)[C@H]3O)[C@@H](O)[C@H]2O)c(=O)[nH]1; assay: OtsA kinetic parameters, continuous colorimetric coupled assay (L319I, E367L); settings: other: L319I, G6P fixed at 10 mM for NDP-glucose, ADP-glucose […] for G6P, pH 7.5, 37.0 °C
[13] = tested on: Nc1ncnc2c1ncn2[C@@H]1O[C@H](COP(=O)(O)OP(=O)(O)O[C@H]2O[C@H](CO)[C@@H](O)[C@H](O)[C@H]2O)[C@@H](O)[C@H]1O; assay: as above; settings: other: L319I, G6P fixed at 10 mM for NDP-glucose, ADP-glucose […] for G6P, pH 7.5, 37.0 °C
[14] = tested on: O=C[C@H](O)[C@@H](O)[C@H](O)[C@H](O)COP(=O)(O)O; assay: as above; settings: other: L319I, G6P fixed at 10 mM for NDP-glucose, ADP-glucose […] for G6P, pH 7.5, 37.0 °C
[15] = tested on: Nc1ncnc2c1ncn2[C@@H]1O[C@H](COP(=O)(O)OP(=O)(O)O[C@H]2O[C@H](CO)[C@@H](O)[C@H](O)[C@H]2O)[C@@H](O)[C@H]1O; assay: OtsA kinetic parameters, continuous colorimetric coupled assay (R213E); settings: other: R213E; G6P fixed at 10 mM for NDP-glucose, ADP-glucose […] for G6P; pH 7.5; 37.0 °C
Protocol: as §1

[16] = tested on: O=C[C@H](O)[C@@H](O)[C@H](O)[C@H](O)COP(=O)(O)O; assay: as above; settings: other: R213E; G6P fixed at 10 mM for NDP-glucose, ADP-glucose […] for G6P; pH 7.5; 37.0 °C
Protocol: as §1

[17] = tested on: Nc1nc2c(ncn2[C@@H]2O[C@H](COP(=O)(O)OP(=O)(O)O[C@H]3O[C@H](CO)[C@@H](O)[C@H](O)[C@H]3O)[C@@H](O)[C@H]2O)c(=O)[nH]1; assay: OtsA kinetic parameters, continuous colorimetric coupled assay (L319I); settings: other: L319I; G6P fixed at 10 mM for NDP-glucose, ADP-glucose […] for G6P; pH 7.5; 37.0 °C
[18] = tested on: Nc1ncnc2c1ncn2[C@@H]1O[C@H](COP(=O)(O)OP(=O)(O)O[C@H]2O[C@H](CO)[C@@H](O)[C@H](O)[C@H]2O)[C@@H](O)[C@H]1O; assay: as above; settings: other: L319I; G6P fixed at 10 mM for NDP-glucose, ADP-glucose […] for G6P; pH 7.5; 37.0 °C
[19] = tested on: O=C[C@H](O)[C@@H](O)[C@H](O)[C@H](O)COP(=O)(O)O; assay: as above; settings: other: L319I; G6P fixed at 10 mM for NDP-glucose, ADP-glucose […] for G6P; pH 7.5; 37.0 °C
[20] = wild type, G6P and ADP-glucose both 0.3 mM

## OC[C@H]1O[C@H](O[C@H]2O[C@H](CO)[C@@H](O)[C@H](O)[C@H]2O)[C@H](O)[C@@H](O)[C@@H]1O [Trehalose]
[1]
  IC50: ~24000 µM

## M. thermoresistibile OtsA L319I, V363F, E367L (Mycolicibacterium thermoresistibile ATCC 19527; E367L/L319I/V363F)
[2]
  Km: 900 ± 60 µM
  kcat: 16 ± 1 s⁻¹
  kcat/Km: 18000 ± 2000 M⁻¹ s⁻¹
[3]
  Km: 1300 ± 100 µM
  kcat: 19 ± 1 s⁻¹
  kcat/Km: 15000 ± 2000 M⁻¹ s⁻¹
[4]
  Km: 3200 ± 200 µM
  kcat: 17 ± 1 s⁻¹
  kcat/Km: 5300 ± 600 M⁻¹ s⁻¹

## M. thermoresistibile OtsA R384E (Mycolicibacterium thermoresistibile ATCC 19527; R384E)
[5]
  Km: 1900 ± 200 µM
  kcat: 3.2 ± 0.1 s⁻¹
  kcat/Km: 1700 ± 200 M⁻¹ s⁻¹
[6]
  Km: 2900 ± 200 µM
  kcat: 2.1 ± 0.2 s⁻¹
  kcat/Km: 770 ± 50 M⁻¹ s⁻¹

## O=C(CO)[C@@H](O)[C@H](O)[C@H](O)COP(=O)(O)O [F6P]
[1]
  effect on OtsA activity: could not detect any effect; also recorded: no effect on the enzyme activity

## M. thermoresistibile OtsA V363F (Mycolicibacterium thermoresistibile ATCC 19527; V363F)
[7]
  Km: 740 ± 80 µM
  kcat: 14 ± 1 s⁻¹
  kcat/Km: 19000 ± 3000 M⁻¹ s⁻¹
[8]
  Km: 600 ± 30 µM
  kcat: 11 ± 1 s⁻¹
  kcat/Km: 18000 ± 2000 M⁻¹ s⁻¹
[9]
  Km: 3100 ± 200 µM
  kcat: 19 ± 1 s⁻¹
  kcat/Km: 6100 ± 700 M⁻¹ s⁻¹

## O=S(=O)(O)CCNC1CCCCC1 [CHES, N-cyclohexyl-2-aminoethanesulfonic acid]
[1]; [20]
  effect on OtsA activity: no discernible impact on OtsA activity

## O=C(O)CCC(=O)C(=O)O [2OG, 2-oxoglutarate]
[1]; [20]
  nH, Hill coefficient (95% confidence interval): 1.4 (1.1–1.7)
[1]; wild type, G6P and ADP-glucose both 0.3 mM, read-out: IC50 (95% confidence interval)
  IC50: 1800 µM
[10]
  effect on OtsA activity: abolished the strong response
  nH, Hill coefficient (95% confidence interval): 0.26 (0.16–0.35)
[10]; read-out: IC50 (95% confidence interval)
  IC50: 73000 µM
[11]
  effect on OtsA activity: strong activator
  nH, Hill coefficient (95% confidence interval): 2.5 (1.4–3.5)
[11]; read-out: EC50 (95% confidence interval), activation
  EC50: 700 µM

## O=C(O)C(CO)OP(=O)(O)O (stereo not shown) [2PG, 2-phosphoglyceric acid]
[1]
  IC50: 2300 µM
[1]; [20]
  nH, Hill coefficient (95% confidence interval): 2.0 (1.4–2.7)
[10]
  nH, Hill coefficient (95% confidence interval): 0.51 (0.40–0.63)
[11]
  effect on OtsA activity: no effect

## M. thermoresistibile OtsA L319I, E367L (Mycolicibacterium thermoresistibile ATCC 19527; E367L/L319I)
[12]
  Km: 700 ± 50 µM
  kcat: 9.2 ± 0.4 s⁻¹
  kcat/Km: 13000 ± 2000 M⁻¹ s⁻¹
[13]
  Km: 630 ± 40 µM
  kcat: 14 ± 1 s⁻¹
  kcat/Km: 22000 ± 3000 M⁻¹ s⁻¹
[14]
  Km: 3700 ± 200 µM
  kcat: 21 ± 1 s⁻¹
  kcat/Km: 5700 ± 500 M⁻¹ s⁻¹

## O=P(O)(O)OC[C@H]1O[C@H](O[C@H]2O[C@H](CO)[C@@H](O)[C@H](O)[C@H]2O)[C@H](O)[C@@H](O)[C@@H]1O [T6P, trehalose-6-phosphate]
[1]; [20]
  effect on OtsA activity: very low sensitivity

## M. thermoresistibile OtsA R213E (Mycolicibacterium thermoresistibile ATCC 19527; R213E)
[15]
  Km: 310 ± 10 µM
  kcat: 56 ± 2 s⁻¹
  kcat/Km: 180000 ± 13000 M⁻¹ s⁻¹
[16]
  Km: 3300 ± 300 µM
  kcat: 33 ± 2 s⁻¹
  kcat/Km: 10000 ± 1000 M⁻¹ s⁻¹

## M. thermoresistibile OtsA L319I (Mycolicibacterium thermoresistibile ATCC 19527; L319I)
[17]
  Km: 350 ± 40 µM
  kcat: 3.1 ± 0.1 s⁻¹
  kcat/Km: 8900 ± 1400 M⁻¹ s⁻¹
[18]
  Km: 710 ± 180 µM
  kcat: 8.4 ± 0.7 s⁻¹
  kcat/Km: 12000 ± 2000 M⁻¹ s⁻¹
[19]
  Km: 3300 ± 200 µM
  kcat: 6.4 ± 0.2 s⁻¹
  kcat/Km: 1900 ± 200 M⁻¹ s⁻¹
